Test results as given in publication PMC8216470.
pKd: −log10 of the molar value.

What was measured:
Test in all cases: MST
Details in all cases: MST with Cy5-labelled tRNA; buffer, salt, pH and temperature not in the material (protein storage: 10 mM Tris-HCl pH 8.0, 200 mM NaCl, 0.5 mM TCEP)
[1] = system: ADAT2;ADAT3 WT (Mus musculus;Mus musculus)
[2] = system: ADAT2;ADAT3-Δloop (Mus musculus;Mus musculus)
TadA (Escherichia coli) = system: TadA (Escherichia coli)
[3] = system: ADAT2;ADAT3-ΔN (Mus musculus;Mus musculus)
[4] = system: ADAT2;ADAT3-V128I (Mus musculus;Mus musculus)
[5] = system: ADAT2;ADAT3-V128L (Mus musculus;Mus musculus)
[6] = system: ADAT2;ADAT3-V128M (Mus musculus;Mus musculus)

Substance | pKd [1] | pKd [2] | pKd (TadA (Escherichia coli)) | pKd [3] | pKd [4] | pKd [5] | pKd [6]
tRNAAla(AGC) | 5.10 | 5.17 | – | – | – | – | –
tRNAArg(ACG) | 5.43 | 5.19 | 5.18 | – | – | – | –
tRNAGly(CCC) | 5.52 | – | – | 4.45 | – | – | –
tRNAVal(AAC) | 5.46 | 5.17 | – | 4.35 | 5.48 | 5.38 | 5.60
